Assay in all cases: cell_activity
The subject of data set [1] is Gin-Avr15Δ120 (synthetic repeats) (synthetic). Conditions: for activity (fold luciferase reduction): HEK293T.
Data set [2] has as its system Gin-Pth15Δ120 (synthetic repeats) (synthetic). Conditions: E. coli.
Data set [3] has as its system TALEN A2 NT-αN (synthetic). The following applies: HeLa; pair A1/A2.
For data set [4], the system named is Gin-AvrXa7 Δ128 (synthetic). Conditions: E. coli.
Data set [5] has as its system TALEN A1 NT-αN (synthetic). Conditions: HeLa; pair A1/A2.
The subject of data set [6] is GinC4 + Gin-Avr15Δ120 heterodimer (synthetic). Conditions: HEK293T; ZFR-TALER heterodimer.
Data set [7] has as its system GinC4 zinc finger recombinase (synthetic). Conditions: HEK293T; 107-fold in p263.
The subject of data set [8] is TALEN C2 NT-αN (synthetic). Conditions: HeLa; pair C1/C2.

We go through 10 sequences from patent publication US20230304022.

Turning to “TTAGCACCTGGTTGGAGGGGGTTTATAGCTTCATCCAAAACCATGGTTTACAGGGTTCCTATAAACCCCCTCCAACCAGGTGCTAA (double strand) [Avr32G]”, the activity (fold luciferase reduction) in data set [1] came to 6. In addition, the activity (fold less than cognate site) in data set [2] was > 600.
In the case of “ATTCTTCCAGAATTGA (double strand) [TALEN A2 half-site]”, in data set [3], the activity (fold over NT-T) came out at 9.
“TTAGCACCTGGTTGGAGGGGGTTTATAGCTTCATCCAAAACCGGGGTTTACAGGGTTCCTATAAACCCCCTCCAACCAGGTGCTAA (double strand) [Avr32GG]”: the activity (fold less than cognate) in data set [4] is > 100.
Consider “CCTGCAGCTCTCATTTT (double strand) [TALEN A1 half-site]”, for which the activity (fold over NT-T) in data set [5] was 9.
Take “TTAGCACCTGGTTGGAGGGGGTTTATAGCTTCAGCTTCATCCAAAACCATGGTTTACAGGGTTCCGGTTCCTATAAACCCCCTCCAACCAGGTGCTAA (double strand) [Avr44G]”: the activity (fold luciferase reduction) in data set [1] came out at 20.
Consider “GCGGGAGGCGTGTCCAAAACCATGGTTTACAGGGTTCCTATAAACCCCCTCCAACCAGGTGCTAA (double strand) [Avr-G-ZF hybrid site]”, for which the activity (fold luciferase reduction) in data set [6] is > 140.
Regarding “GCGGGAGGCGTGTCCAAAACCATGGTTTACAG (double strand) [C4-20G (C4 zinc finger site flanking Gin core)]”, the activity (fold luciferase reduction) in data set [7] was > 80.
As to “CAGAATTGATACTGACT (double strand) [TALEN C2 half-site]”, the activity (fold over NT-T) in data set [8] was 2.
Regarding “TTAGCACCTGGTTGGAGGGGGTTTATAGCTTCACGAAATATTATAAATTATCAGGTTCCTATAAACCCCCTCCAACCAGGTGCTAA (double strand) [Avr32T]”, the activity (fold less than cognate) in data set [4] was > 100. Besides, the activity (fold less than cognate core) in data set [1] (E. coli) is > 1000.
Turning to “GTGGTGTACAGTAGGGGGAGATGCAGCTGCTTCCAAAACCATGGTTTACAGGGTGGTTGCATCTCCCCCTACTGTACACCAC (double strand) [PthXo1-32G]”, in data set [4] (non-cognate TALE site), the activity (fold less than cognate) is > 100. The activity (fold less than cognate site) in data set [1] (E. coli) is > 600. Moreover, the activity (fold over non-cognate site) in data set [2] is > 600.
